Data reported in US20230348603A1 (VERSEAU THERAPEUTICS, published 2023).

Columns and labels:
Human VSIG4-L-Fc [1] = molecular target: T1, Human VSIG4-L-Fc (human); experiment: ELISA, Fab P.E. 1:5 on coated antigen;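 note: mouse Fab P.E. samples in 1% skimmed milk PBS, bound to antigen-coated wells for 1 h at room temperature, read as absorbance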
T1 construct: also called hVSIG4-L-Fc; hVSIG4-L

Human VSIG4-S-Fc = molecular target: T2, Human VSIG4-S-Fc (human); experiment: ELISA, Fab P.E. 1:5 on coated antigen;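 note: mouse Fab P.E. samples in 1% skimmed milk PBS, bound to antigen-coated wells for 1 h at room temperature, read as absorbance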
T2 construct: short isoform ECD fused to human Fc1; also called hVSIG4-S

[2] = molecular target: T3, Cynomolgus Monkey VSIG4-L-His (cynomolgus monkey); experiment: ELISA, Fab P.E. 1:5 on coated antigen;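 note: mouse Fab P.E. samples in 1% skimmed milk PBS, bound to antigen-coated wells for 1 h at room temperature, read as absorbance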
T3 construct: ECD with His tag; also called cyVSIG4-L; cyno VSIG4-L-His
T3 chain: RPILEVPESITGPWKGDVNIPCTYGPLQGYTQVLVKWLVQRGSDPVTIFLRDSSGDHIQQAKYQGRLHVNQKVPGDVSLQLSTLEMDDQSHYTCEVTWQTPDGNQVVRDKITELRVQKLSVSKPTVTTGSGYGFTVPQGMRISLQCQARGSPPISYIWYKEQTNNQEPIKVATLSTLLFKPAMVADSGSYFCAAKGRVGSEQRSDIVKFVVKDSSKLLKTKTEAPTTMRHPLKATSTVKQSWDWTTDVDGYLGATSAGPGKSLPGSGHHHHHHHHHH

Human VSIG4-L-His [3] = molecular target: T4, Human VSIG4-L-His (human, UniProt Q9Y279 20-283); experiment: SPR (Biacore T200), Fab P.E. 1:5 over immobilised antigen
T4 construct: long isoform ECD with His tag; also called hVSIG4-L
T4 sequence: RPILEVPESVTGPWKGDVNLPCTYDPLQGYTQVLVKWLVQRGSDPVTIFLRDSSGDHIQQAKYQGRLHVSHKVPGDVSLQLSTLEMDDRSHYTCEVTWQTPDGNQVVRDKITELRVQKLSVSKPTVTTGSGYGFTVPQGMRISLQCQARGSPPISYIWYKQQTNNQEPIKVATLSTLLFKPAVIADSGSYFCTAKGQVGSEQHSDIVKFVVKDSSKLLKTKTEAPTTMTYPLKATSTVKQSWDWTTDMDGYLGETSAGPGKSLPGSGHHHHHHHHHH

Human VSIG4-L-His [4] = molecular target: T4, Human VSIG4-L-His; experiment: BLI (Octet), mouse IgG on AMC sensor, antigen 100 nM;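 note: octet Red384 biolayer interferometry with immobilized mouse hybridoma antibodies, 300 s association then 300 s dissociation at 30 °C, isotype-control reference subtraction, 1:1 global fit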
Human VSIG4-S-His = molecular target: T5, Human VSIG4-S-His (human, UniProt Q9Y279 20-283); experiment: as above
T5 construct: short isoform ECD with His tag; also called hVSIG4-S; VISG4-S-His
T5 sequence: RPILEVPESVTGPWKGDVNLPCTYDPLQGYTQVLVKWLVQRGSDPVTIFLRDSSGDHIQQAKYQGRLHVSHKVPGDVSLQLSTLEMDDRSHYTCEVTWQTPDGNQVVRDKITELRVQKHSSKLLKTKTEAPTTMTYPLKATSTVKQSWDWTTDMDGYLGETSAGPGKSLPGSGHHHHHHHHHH

[5] = molecular target: T3, Cynomolgus Monkey VSIG4-L-His; experiment: as above
Human VSIG4-L-Fc [6] = molecular target: T1, Human VSIG4-L-Fc; experiment: BLI cross-blocking on hVSIG4-L-Fc, competitor 12A12 first
Human VSIG4-L-Fc [7] = molecular target: T1, Human VSIG4-L-Fc; experiment: BLI cross-blocking on hVSIG4-L-Fc, competitor 14C05 first

| Binder | Kd (Human VSIG4-L-His [4]) | Kd (Human VSIG4-S-His) | Kd [5] | binding signal (nm shift) (Human VSIG4-L-Fc [6]) | binding signal (nm shift) (Human VSIG4-L-Fc [7]) | other results |
| --- | --- | --- | --- | --- | --- | --- |
| 15C04 mouse Fab (periplasmic extract) (Fab, V domains shown, mouse Fab with C-terminal His6-c-myc tag) VH: QIQLQESGPSLVRPSQTLSLTCSVTGDSITSGYWNWIRKFPGDKLEYLGYISYSGFTYYNPSLKSRISITRDTSKNQYYLQLNSVTTEDTATYYCASSYYGSSLGFPYWGQGTLVTVSA VL: DVVMTQTPLSLPVSLGDQASISCRSSQSLVHSNGNTYLHWYLQKPGQSPKLLIYKVSNRFSGVPDRFSGSGSGTDFTLKISRVEAEDLGVYFCSQSTHVPWTFGGGTKLEIK |  |  |  |  |  | ELISA OD450 (Human VSIG4-L-Fc [1]): 4.21 OD450; ELISA OD450 (Human VSIG4-S-Fc): 0.06 OD450; ELISA OD450 [2]: 0.05 OD450; koff (Human VSIG4-L-His [3]): 0.0019 s⁻¹ |
| 1C6.D6 murine hybridoma antibody (antibody, V domains shown, murine IgG purified from hybridoma supernatant; also called 1C6.D6b) VH: QVQLQQPGAEMVRPGTSVKLSCKASGYTFTSYWMHWVKQRPGQGLEWIGKIDPSHNKTHYIQKFEDKATLTVDKSSSTAYMHLNSLTSEDSAVYYCVTWDGDFLYWGQGTLVTVSA VL: NIVLTQSPASLTVSLGQRATISCRASESVDSYGNSFMHWYQQKPGQPPKLLIYITSNLQSGVPARFSGGGSRTDFTLTIDPVEADDAATYYCQQNNEDPWTFGGGTKLEIK | 1.03 nM | 3.29 nM | 1.13 nM |  |  |  |
| 1H7.C7 murine hybridoma antibody (antibody, V domains shown, murine IgG purified from hybridoma supernatant) VH: EVQLVESGGGLVMPGGSRRLSCAASGFTFSDSGMYWVRQAPEKGLEWIAYISSGSDTLYYAATVKGRFTISRDNAKNTLFLQMTSLRSEDTAIYYCAKRNFYGYDVMDYWGQGTSVTVSS VL: DIVMTQSHKFMSTSVGDRVSITCKASQDVSNVVAWYQQKPGQSPKLLIYSASYRYTGVPDRFAGSGSGTDFTFTISSVQAEDLAVYYCQQHYSTPWTFGGGTKLEIK | 6.83 nM | 21.5 nM | 6.45 nM |  |  |  |
| 5D2.C8 murine hybridoma antibody (antibody, V domains shown, murine IgG purified from hybridoma supernatant) VH: EVKLVESGGGLVKPGGSLKLSCAVSGFTFSNSAMSWVRQTPAKRLEWVAYISISGDNTYYPDSVKGRFTISRDNAKNTLYLQMSSLRSEDTAMYYCARRGYDYDGFTHWGQGTLVTVSA VL: DILLTQSPAILSVSPGERVSFSCRASQNIGTSIHWYQQRTNGSPRLLIKYASQSISGIPSRFSGSGSGTDFTLSINSVESEDIADYYCQQSYSWPLTFGTGTQLELK | 0.475 nM | 0.505 nM | 0.435 nM |  |  |  |
| 9A10.C4 murine hybridoma antibody (antibody, V domains shown, murine IgG purified from hybridoma supernatant) VH: EVQLVESGGALVQPGGSLKLSCVASGFSFSNCVMSWVRQSPEKRLEWVATIGSDGSYSYYQDNVKGRFTVSRDNAKNTLYLQMSSLGSEDTALYYCGRHIYGYDVVDYWGQGTSLTVSS VL: DIVMTQSHKFMSTSVGDRVTITCKASQDVSNVVAWFQQKPGQSPKLLIYSASYRFGGVPDRFTGSGSGTDFTFTISSVQAEDLAVYYCQQHYDTPLTFGTGTTLELK | 0.965 nM | 5.16 nM | 1.23 nM |  |  |  |
| 10E8.B6 murine hybridoma antibody (antibody, V domains shown, murine IgG purified from hybridoma supernatant) VH: EVQLQQSGPELMKPGDSVKMSCKASGYTFTDYYMDWVKQSHGKSLEWIGYIYPNIDFTTYNQKFKGKATLTVDKSSNTAYMELHSLTSEDSAVYYCTRRDLPLHGSAYYFDYWGQGTTLTVSS VL: DIVMSQSPSSLAVSAGEKVTMSCKSSQSLLNSRTRKNYLAWYQQKPGQSPKLLIYWASTRESGVPDRFTGSGSGTDFTLTISSVQAEDLAVYYCKQSYDLFTFGSGTKLEIK | 2.13 nM | 6.95 nM | 1.56 nM |  |  |  |
| 9A10.C4 mouse/human chimeric IgG4 (S228P) kappa (antibody, V domains shown) VH: EVQLVESGGALVQPGGSLKLSCVASGFSFSNCVMSWVRQSPEKRLEWVATIGSDGSYSYYQDNVKGRFTVSRDNAKNTLYLQMSSLGSEDTALYYCGRHIYGYDVVDYWGQGTSLTVSS VL: DIVMTQSHKFMSTSVGDRVTITCKASQDVSNVVAWFQQKPGQSPKLLIYSASYRFGGVPDRFTGSGSGTDFTFTISSVQAEDLAVYYCQQHYDTPLTFGTGTTLELKR |  |  |  | 0.1 nm | 0.14 nm |  |
| 10E8.B6 mouse/human chimeric IgG4 (S228P) kappa (antibody, V domains shown) VH: EVQLQQSGPELMKPGDSVKMSCKASGYTFTDYYMDWVKQSHGKSLEWIGYIYPNIDFTTYNQKFKGKATLTVDKSSNTAYMELHSLTSEDSAVYYCTRRDLPLHGSAYYFDYWGQGTTLTVSS VL: DIVMSQSPSSLAVSAGEKVTMSCKSSQSLLNSRTRKNYLAWYQQKPGQSPKLLIYWASTRESGVPDRFTGSGSGTDFTLTISSVQAEDLAVYYCKQSYDLFTFGSGTKLEIKR |  |  |  | 0.06 nm | 0.11 nm |  |
| 13E11.A4 mouse/human chimeric IgG4 (S228P) kappa (antibody) heavy: not shown light: DIVMTQSHKFMSTSVGDNVSITCKASQYVSNTVAWYQQKPGQSPKLLIYSASYRNTGVPDRFTGSGSGTNFTFTISNMQAEDLAFYYCQQHYTSPLTFGAGTKLELKRTVAAPSVFIFPPSDEQLKSGTASVVCLLNNFYPREAKVQWKVDNALQSGNSQESVTEQDSKDSTYSLSSTLTLSKADYEKHKVYACEVTHQGLSSPVTKSFNRGEC |  |  |  | 0.07 nm | 0.24 nm |  |
| 14F8.H6 mouse/human chimeric IgG4 (S228P) kappa (antibody, V domains shown) VH: EVHLVESGGALVKPGGSLKLSCTASGFTFSNSVMSWIRQTPEKRLEWVATIGSGGTYIYYPDSVKGRFTISRDNSKNTLFLQMTSLRSEDTALYYCARHIYGYDVVDYWGQGTTLTVST VL: DIVMTQSHRFMSTSVGDRVSITCKASHDVSNVVAWYQQKPGQSPELLIYSASYRYTGVPARFTGSGSGTDFTFTISSVQAEDLAVYFCQQHFTTPLTFGAGTSLEVRR |  |  |  | 0.1 nm | 0.15 nm |  |
| 16F6.E1 mouse/human chimeric IgG4 (S228P) kappa (antibody, V domains shown) VH: QVQLQQPGAEMVRPGASLKLSCKASGYTFTSYWMHWVKQRPGQGLEWIGKIDPSKNTTHYNQNFRDKATLTVDRSSSTAYMQLNSLTSEDSAVYFCVTWDGDFTYWGQGTLVTISA VL: NIVLTQSPPSLAVSLGQRATISCRASESVDSYGNSFMHWYQQKPGQPPKLLIYLASNLESGVPARFSGSGSRTDFTLTIDPVEADDAATYFCHQNNEDPWTFGGGTKLEIKR |  |  |  | 0.09 nm | 0.56 nm |  |
| EU103.2 anti-VSIG4 antibody, human IgG4 (S228P) kappa (antibody, V domains shown, variable regions from U.S. Pat. Publ) VH: QVQLQESGPGLVKPSQTLSLTCSFSGISLTTSGMGVGWIRQPPGKGLEWLADIFWDDNKYYNPSLKSRVTISVDTSKNQFSLKLSSVTAADTAVYYCVRVYYKNDGYFDVWGQGTLVTVSS VL: EIVMTQSPATLSVSPGERATLSCRASKSVTTSGYSFMHWYQQKPGQAPRLLIYLASNLEPGIPARFSGSGSGTEFTLTISSLQSEDFAVYYCQHSRELPYTFGQGTKLEIKR |  |  |  | 0.3 nm | 0.29 nm |  |
| A1 anti-VSIG4 antibody, human IgG4 (S228P) kappa (antibody, V domains shown, variable regions from U.S. Pat. Publ) VH: QVTLKESGPTLVKPTQTLTLTCTFSGISLTTSGMGVGWIRQPPGKALEWLADIFWDDNKYYNPSLKSRLTITKDTSKNQVVLTMTNMDPVDTATYYCVRVYYKNDGYFDVWGKGTTVTVSS VL: DIVLTQSPLSLPVTLGQPASISCRASKSVTTSGYSFMHWYQQRPGQSPRLLIYLASNLEPGVPDRFSGSGSGTDFTLKISRVEAEDVGVYYCQQSGELPYTFGQGTKLEIKR |  |  |  | 0.57 nm | 0.55 nm |  |
| A2 anti-VSIG4 antibody, human IgG4 (S228P) kappa (antibody, V domains shown, variable regions from U.S. Pat. Publ) VH: QVTLKESGPTLVKPTQTLTLTCTFSGISLTTSGMGVGWIRQPPGKALEWLADIFWDDNKYYNPSLKSRLTITKDTSKNQVVLTMTNMDPVDTATYYCVRVYYKNDGYFDVWGKGTTVTVSS VL: DIVLTQSPLSLPVTLGQPASISCRASKSVTTSGYSFMHWYQQRPGQSPRLLIYLASNLEPGVPDRFSGSGSGTDFTLKIFRVEAEDVGVYYCQQSGELPYTFGQGTKLEIKR |  |  |  | 0.6 nm | 0.57 nm |  |
| 16E03 mouse Fab (periplasmic extract) (Fab, V domains shown, mouse Fab with C-terminal His6-c-myc tag) VH: QVQLQQSGAELARPGASVKMSCKASGYTFTSYTMHWIKQRPGQGLEWIGYINPSSGHTYYNQKFKDKATLTPDKSSSTAYMQLTSLTSEDSAVYYCARRIPTAYAMDYWGQGTSVTVSS VL: EIQMTQSHKFMSTSVGDRVSITCKASQDVGTAVAWYQQKPGQSPKLLIYWASTRHTGVPDRFTGSGSGTDFTLTISNVQSEDLADYFCQQYSSYPLTFGAGTKLELK |  |  |  |  |  | ELISA OD450 (Human VSIG4-L-Fc [1]): 4.43 OD450; ELISA OD450 (Human VSIG4-S-Fc): 4.3 OD450; ELISA OD450 [2]: 0.21 OD450; koff (Human VSIG4-L-His [3]): 0.013 s⁻¹ |
